From paper PMC3926955 (The Journal of Cell Biology, 2014) come the findings set out here.

The target of the assay is T1, GST-Pex3ΔN (aa 41–455, cytosolic domain) (P. pastoris, UniProt Q92262 41-455).
T1 sequence (looked up): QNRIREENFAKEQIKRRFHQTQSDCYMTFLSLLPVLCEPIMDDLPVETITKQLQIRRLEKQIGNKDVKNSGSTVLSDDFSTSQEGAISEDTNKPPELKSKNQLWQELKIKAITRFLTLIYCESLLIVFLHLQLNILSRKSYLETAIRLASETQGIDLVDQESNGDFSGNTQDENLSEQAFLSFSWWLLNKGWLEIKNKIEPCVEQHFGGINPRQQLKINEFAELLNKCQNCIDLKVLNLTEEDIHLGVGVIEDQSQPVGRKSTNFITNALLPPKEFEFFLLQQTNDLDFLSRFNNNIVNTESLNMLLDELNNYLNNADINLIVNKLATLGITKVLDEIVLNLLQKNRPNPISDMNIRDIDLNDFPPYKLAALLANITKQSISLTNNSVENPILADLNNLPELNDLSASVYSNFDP
In words: pull-down.

Positions count from the first letter of the chain named. Names and notes keep the numbering of the source.

B1: His-Atg37ΔC (WT) (domain or fragment, P. pastoris, UniProt C4R8D7 1-278, looked up)
chain: MSESIDRVFVKAIGTIRTLSSRTGYGGLPRPPIENRVKLYGLYKQATEGDVAGVMERPLGDSPEAEAAKRKWDAWRSEQGTSKTEAKRQYISYLIDTMKQFASDTTEARELLSELEYLWNQISDVSPNDSSDSESNAGPAQLLQNHAQLLSRDISVVDDPITSSGMDPMYNPSFQRHNSSRFINASTAERLNSLSNYYSNLNPTPPLSSRRYQGSVTPRNVDFIKWQNDINNSINKLNHDLQLLANRRLQSSASDPLYSKRGSDLTHDDFVNDISSSS
On to B1, for which the binding result is listed as “binds”.

B2: His-Atg37ΔC acbs mutant (Y40F K44A) (domain or fragment, P. pastoris, UniProt C4R8D7 1-278, looked up)
chain: B1 chain with Y40F, K44A
For the molecule B2, the binding result is “binds”.
